Laboratory results taken from article PMC2877795, “Laminin chain assembly is regulated by specific coiled-coil interactions” (Journal of Structural Biology, 2010).

T1: β2γ1 complex of the recombinant mouse laminin coiled-coil fragments (mouse, UniProt Q61292 1575-1799; P02468 1362-1607)
T1 construct: two residues (GlySer) left from the protease recognition site after thrombin cleavage; laminin β2 chain, mouse, residues 1575-1799 of the native chain; as m7; laminin γ1 chain, mouse, residues 1362-1607 of the native chain; as m9; in the αβγ tests all three chains were mixed, the βγ complex was not isolated beforehand; source: mixture of the purified E. coli fragments; not shown: 6xHis, …
T1 sequence 1: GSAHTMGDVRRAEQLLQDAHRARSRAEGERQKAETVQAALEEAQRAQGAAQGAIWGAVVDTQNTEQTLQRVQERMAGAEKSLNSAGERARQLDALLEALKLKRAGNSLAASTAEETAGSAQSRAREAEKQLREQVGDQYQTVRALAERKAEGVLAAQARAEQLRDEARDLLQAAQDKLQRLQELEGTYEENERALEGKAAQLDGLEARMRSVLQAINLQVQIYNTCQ
T1 sequence 2: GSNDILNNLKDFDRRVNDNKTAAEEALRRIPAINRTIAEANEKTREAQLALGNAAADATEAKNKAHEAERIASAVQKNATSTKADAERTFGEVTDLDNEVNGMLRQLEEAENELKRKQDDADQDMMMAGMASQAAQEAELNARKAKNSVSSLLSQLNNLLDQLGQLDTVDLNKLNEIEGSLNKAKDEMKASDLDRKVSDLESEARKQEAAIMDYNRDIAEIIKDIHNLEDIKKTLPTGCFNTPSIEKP

T2: β1γ1 complex of the recombinant mouse laminin coiled-coil fragments (mouse, UniProt P02469 1561-1786; P02468 1362-1607)
T2 construct: two residues (GlySer) left from the protease recognition site after thrombin cleavage; laminin β1 chain, mouse, residues 1561-1786 of the native chain; as m6; laminin γ1 chain, mouse, residues 1362-1607 of the native chain; as m9; heterodimer by AUC; in the αβγ tests all three chains were mixed, the βγ complex was not isolated beforehand; source: mixture of the purified E. coli fragments; not …
T2 sequence 1: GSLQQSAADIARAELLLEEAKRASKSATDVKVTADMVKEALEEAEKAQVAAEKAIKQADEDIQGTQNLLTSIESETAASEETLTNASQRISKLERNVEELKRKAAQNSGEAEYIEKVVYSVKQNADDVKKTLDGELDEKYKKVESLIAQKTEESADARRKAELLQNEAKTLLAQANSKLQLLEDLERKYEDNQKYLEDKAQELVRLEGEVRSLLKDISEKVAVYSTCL
T2 sequence 2: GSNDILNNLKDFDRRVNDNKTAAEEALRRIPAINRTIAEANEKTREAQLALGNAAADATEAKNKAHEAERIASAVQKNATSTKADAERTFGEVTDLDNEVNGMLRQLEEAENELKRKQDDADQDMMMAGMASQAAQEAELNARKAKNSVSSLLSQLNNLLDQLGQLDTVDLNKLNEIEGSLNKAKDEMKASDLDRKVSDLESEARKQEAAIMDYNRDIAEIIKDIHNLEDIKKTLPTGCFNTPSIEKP

T3: β1γ3 complex of the recombinant mouse laminin coiled-coil fragments (mouse, UniProt P02469 1561-1786; Q9R0B6 1344-1581)
T3 construct: two residues (GlySer) left from the protease recognition site after thrombin cleavage; laminin β1 chain, mouse, residues 1561-1786 of the native chain; as m6; laminin γ3 chain, mouse, residues 1344-1581 of the native chain; as m11; in the αβγ tests all three chains were mixed, the βγ complex was not isolated beforehand; source: mixture of the purified E. coli fragments; not shown: 6xHis, …
T3 sequence 1: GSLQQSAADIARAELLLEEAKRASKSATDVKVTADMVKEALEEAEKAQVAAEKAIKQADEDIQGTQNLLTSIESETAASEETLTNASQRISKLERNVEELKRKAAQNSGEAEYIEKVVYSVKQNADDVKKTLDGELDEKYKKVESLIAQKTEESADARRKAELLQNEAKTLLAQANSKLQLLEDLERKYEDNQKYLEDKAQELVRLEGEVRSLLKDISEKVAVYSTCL
T3 sequence 2: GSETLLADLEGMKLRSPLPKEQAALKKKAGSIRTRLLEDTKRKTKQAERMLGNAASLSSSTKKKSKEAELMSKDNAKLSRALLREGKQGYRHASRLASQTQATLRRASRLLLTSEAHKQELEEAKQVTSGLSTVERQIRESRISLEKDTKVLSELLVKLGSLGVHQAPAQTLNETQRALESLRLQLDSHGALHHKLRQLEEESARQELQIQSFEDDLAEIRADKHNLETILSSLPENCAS

T4: recombinant mouse laminin γ2 chain C-terminal coiled-coil fragment (949–1191) (mouse, UniProt Q61092 949-1191)
T4 construct: two residues (GlySer) left from the protease recognition site after thrombin cleavage; laminin γ2 chain, mouse, C-terminal coiled-coil fragment, residues 949-1191 of the native chain (243 residues); source: E. coli JM109(DE3), purified (Ni2+-Sepharose, denaturing, 8 M urea), 6xHis tag removed by thrombin; not shown: 6xHis, N-terminal, cleaved; pPEP-T leader (short C-terminal fragment of the …)
T4 sequence: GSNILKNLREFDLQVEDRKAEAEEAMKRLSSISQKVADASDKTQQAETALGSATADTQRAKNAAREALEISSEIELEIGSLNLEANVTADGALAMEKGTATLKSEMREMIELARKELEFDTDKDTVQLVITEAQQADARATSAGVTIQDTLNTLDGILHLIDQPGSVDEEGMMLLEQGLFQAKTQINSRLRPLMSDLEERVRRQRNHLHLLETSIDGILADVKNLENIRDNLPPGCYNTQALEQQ


What was measured:
Conditions in all cases: both partners purified
[1] = target: T1, β2γ1 complex of the recombinant mouse …; assay: native gel or EMSA; mixtures of one α, one β and one γ chain fragment; 10% non-denaturing PAGE (acid gels for basic complexes); mixtures reduced, heated to 70 °C for 5 min and cooled; run overnight at 50 V, room temperature, no cooling; Coomassie; bands confirmed by in-gel trypsin digestion and mass spectrometry
[2] = target: T2, β1γ1 complex of the recombinant mouse …; assay: as above
[3] = target: T3, β1γ3 complex of the recombinant mouse …; assay: as above
[4] = target: T4, recombinant mouse laminin γ2 chain …; assay: native gel or EMSA; mixtures of one β and one γ chain fragment; 10% non-denaturing PAGE (acid gels for basic complexes); mixtures reduced, heated to 70 °C for 5 min and cooled; run overnight at 50 V; Coomassie; bands confirmed by in-gel trypsin digestion and mass spectrometry

Binder | binding result [1] | binding result [2] | binding result [3] | binding result [4]
recombinant mouse laminin α1 chain C-terminal coiled-coil fragment (1911–2125) (domain or fragment, two residues (GlySer) left from the protease recognition site after thrombin cleavage; laminin α1 chain, mouse, C-terminal coiled-coil fragment, residues 1911-2125 of the native chain (215 residues); source: E. coli JM109(DE3), purified (Ni2+-Sepharose, denaturing, 8 M urea), 6xHis tag removed by thrombin; not shown: 6xHis, N-terminal, cleaved; pPEP-T leader (short C-terminal fragment of the …)) GSHVHSNIQTLTEEAEMLAADAHKTANKTDLISESLASRGKAVLQRSSRFLKESVSTRRKQQGITMKLDELKNLTSQFQESMDNIMKQANDSLAMLRESPGGMREKGRKARELAAAANESAVKTLEDVLALSLRVFNTSEDLSRVNATVQETNDLLHNSTMTTLLAGRKMKDMEMQANLLLDRLKPLKTLEENLSRNLSEIKLLISRARKQVASIKV | binds | binds | – | –
recombinant mouse laminin α2 chain C-terminal coiled-coil fragment (1924–2145) (domain or fragment, two residues (GlySer) left from the protease recognition site after thrombin cleavage; laminin α2 chain, mouse, C-terminal coiled-coil fragment, residues 1924-2145 of the native chain (222 residues); source: E. coli JM109(DE3), purified (Ni2+-Sepharose, denaturing, 8 M urea), 6xHis tag removed by thrombin; not shown: 6xHis, N-terminal, cleaved; pPEP-T leader (short C-terminal fragment of the …)) GSYSNIKDYIDEAEKVAREAKELAQGATKLATSPQGLLKEDAKGSLQKSFRILNEAKKLANDVKGNHNDLNDLKTRLETADLRNSGLLGALNDTMDKLSAITNDTAAKLQAVKEKAREANDTAKAVLAQVKDLHQNLDGLKQNYNKLADSVAKTNAVVKDPSKNKIIADAGTSVRNLEQEADRLIDKLKPIKELEDNLKKNISEIKELINQARKQANSIKVSVS | binds | binds | binds | –
recombinant mouse laminin β3 chain C-terminal coiled-coil fragment (945–1168) (domain or fragment, two residues (GlySer) left from the protease recognition site after thrombin cleavage; laminin β3 chain, mouse, C-terminal coiled-coil fragment, residues 945-1168 of the native chain (224 residues); source: E. coli JM109(DE3), purified (Ni2+-Sepharose, denaturing, 8 M urea), 6xHis tag removed by thrombin; not shown: 6xHis, N-terminal, cleaved) GSLSQTKQDIARARRLQAEAEQARSRAHAVEGQVDDVVGNLRQGTVALQEAQDTMQGTGRSLRLIQERVGEVQQVLVPAERLVKGMKEQMSGFWARMKELRRQAQEEQAQAMQARQLAEGASQQAMNAQEGFKRLKQKYTELKDRLGQSPVLGEQGNRILSIKMEAEELFGETMEMMDKMKDMESELLRGSQAIMLRSADLSGLEKRVEQIRSYINGRVLYYATCK | – | – | – | binds
